# Results: patent US20110038869A1
# Read-outs that look alike come from different tables or passages of the source.
# Key:
# CD32aECDHis (human) = CD32aECDHis (human) (UniProt P12318); experiment: TR-FRET competition of unlabeled against labelled HuMab-KLH, Fc-mediated
# CD32bECDHis (human) [1] = molecular target: CD32bECDHis (human) (UniProt P31994); experiment: as above
# [2] = molecular target: biotinylated CD32bECDHis (human) (UniProt P31994); experiment: competition ELISA, competitor 016
# [3] = molecular target: CD32b on CD32b+ Daudi cells (Daudi-luc) (human) (UniProt P31994); experiment: flow cytometry on Daudi-luc cells
# Chain of CD32b on CD32b+ Daudi cells (Daudi-luc) (human) (P31994 43-310): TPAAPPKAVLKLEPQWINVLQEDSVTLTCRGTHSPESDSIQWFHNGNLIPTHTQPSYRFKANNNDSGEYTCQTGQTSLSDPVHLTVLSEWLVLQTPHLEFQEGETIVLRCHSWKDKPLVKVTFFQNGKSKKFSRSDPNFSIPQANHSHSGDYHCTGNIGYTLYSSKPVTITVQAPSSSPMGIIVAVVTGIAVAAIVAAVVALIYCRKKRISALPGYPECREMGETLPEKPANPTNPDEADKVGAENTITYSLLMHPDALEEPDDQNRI
# [4] = molecular target: CD32b on CD32b+ Daudi cells (Daudi-luc) (human) (UniProt P31994); experiment: flow cytometry on JeKo-1 mantle cell lymphoma cells
# [5] = molecular target: CD32b on CD32b+ Daudi cells (Daudi-luc) (human) (UniProt P31994); experiment: cell-based or functional assay
# [6] = molecular target: biotinylated CD32bECDHis (human) (UniProt P31994); experiment: competition ELISA, competitor 2B6
# [7] = molecular target: biotinylated CD32bECDHis (human) (UniProt P31994); experiment: competition ELISA, competitor 053
# [8] = molecular target: biotinylated CD32bECDHis (human) (UniProt P31994); experiment: competition ELISA, competitor 022
# [9] = molecular target: full length CD32b2 on transfected IIA1.6 cells (human) (UniProt P31994); experiment: flow cytometry on IIA1.6-CD32b2 cells
# Chain of full length CD32b2 on transfected IIA1.6 cells (human) (P31994 other isoform, or with tags, fused parts or gaps): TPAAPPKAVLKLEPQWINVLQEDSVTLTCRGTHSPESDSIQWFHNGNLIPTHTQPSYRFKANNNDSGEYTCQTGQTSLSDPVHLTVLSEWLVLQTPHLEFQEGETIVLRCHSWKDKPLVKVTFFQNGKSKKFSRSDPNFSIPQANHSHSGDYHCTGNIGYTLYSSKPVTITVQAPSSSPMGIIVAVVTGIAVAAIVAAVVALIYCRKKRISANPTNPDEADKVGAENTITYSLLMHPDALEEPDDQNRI
# [10] = molecular target: full length CD32b1 on transfected IIA1.6 cells (human) (UniProt P31994); experiment: flow cytometry on IIA1.6-CD32b1 against IIA1.6-CD32b2 cells
# Chain of full length CD32b1 on transfected IIA1.6 cells (human) (P31994 43-310): as the sequence (P31994 43-310) above
# [11] = molecular target: biotinylated CD32bECDHis (human) (UniProt P31994); experiment: competition ELISA, competitor 028
# [12] = molecular target: biotinylated CD32bECDHis (human) (UniProt P31994); experiment: competition ELISA, competitor 024
# CD32bECDHis (human) [13] = molecular target: CD32bECDHis (human) (UniProt P31994); experiment: ELISA on coated CD32bECDHis
# CD32bECDHis (human) [14] = molecular target: CD32bECDHis (human) (UniProt P31994); experiment: SPR BIAcore 3000, antibody immobilized, CD32bECDHis analyte
# CD32bECDHis (human) [15] = molecular target: CD32bECDHis (human) (UniProt P31994); experiment: TR-FRET competition against HuMab-KLH-AlexaFluor 647
# [16] = molecular target: biotinylated CD32bECDHis (human) (UniProt P31994); experiment: competition ELISA, competitor 038
# [17] = molecular target: biotinylated CD32bECDHis (human) (UniProt P31994); experiment: competition ELISA, competitor 034
# [18] = molecular target: full length CD32b on stably transfected IIA1.6 cells (human) (UniProt P31994); experiment: flow cytometry on IIA1.6-CD32b cells
# Chain of full length CD32b on stably transfected IIA1.6 cells (human) (P31994 43-310): as above
# [19] = molecular target: biotinylated CD32bECDHis (human) (UniProt P31994); experiment: competition ELISA, competitor 063
# [20] = molecular target: biotinylated CD32bECDHis (human) (UniProt P31994); experiment: competition ELISA, competitor 026
# [21] = molecular target: CD32b on CD32b+ Daudi cells (Daudi-luc) (human) (UniProt P31994); experiment: cell-based or functional assay; remark: listed apart in the source
# [22] = molecular target: full length CD32b1 on transfected IIA1.6 cells (human) (UniProt P31994); experiment: flow cytometry on IIA1.6-CD32b1 cells
# [23] = molecular target: biotinylated CD32bECDHis (human) (UniProt P31994); experiment: competition ELISA, competitor 020
# Chain of biotinylated CD32bECDHis (human) (P31994 43-223 limits assumed, form in doubt): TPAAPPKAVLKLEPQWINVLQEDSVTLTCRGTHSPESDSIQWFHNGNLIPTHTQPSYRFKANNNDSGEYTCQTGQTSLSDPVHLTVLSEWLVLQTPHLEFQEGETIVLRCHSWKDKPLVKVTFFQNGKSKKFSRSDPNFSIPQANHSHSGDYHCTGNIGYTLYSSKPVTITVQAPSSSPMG
# Chain of CD32bECDHis (human) (P31994 43-223 limits assumed, form in doubt): as above
# Chain of CD32aECDHis (human) (P12318 34-215 limits assumed, form in doubt): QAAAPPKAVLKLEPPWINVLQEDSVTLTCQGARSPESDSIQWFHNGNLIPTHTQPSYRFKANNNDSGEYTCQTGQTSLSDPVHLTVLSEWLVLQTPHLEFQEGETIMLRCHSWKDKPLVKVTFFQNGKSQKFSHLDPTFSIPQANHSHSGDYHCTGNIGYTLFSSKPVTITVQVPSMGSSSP
substance,measurement,setting,value
HuMab-KLH (a human monoclonal antibody against KLH (keyhole limpet haemocyanin)),IC50,CD32aECDHis (human),134 nM
same,IC50,CD32bECDHis (human) [1],417 nM
chimeric anti-CD32b antibody 2B6,% residual binding,[2],105%
same,EC50,[3],0.1 nM
same,EC50,[4],0.34 nM
same,"EC50 (nM) in ADCC, lysis of 51Cr-labelled Daudi cells by PBMC",[5],0.13 nM
same,% residual binding,[6],20%
same,% residual binding,[7],185%
same,% residual binding,[8],179%
same,EC50,[9],0.19 nM
same,Ratio EC50 (CD32b1)/EC50(CD32b2),[10],1.27
same,% residual binding,[11],165%
same,% residual binding,[12],174%
same,EC50,CD32bECDHis (human) [13],1.24 nM
same,Kd,CD32bECDHis (human) [14],0.3 nM
same,koff,CD32bECDHis (human) [14],0.00087 s⁻¹
same,kon,CD32bECDHis (human) [14],2.61e+06 M⁻¹ s⁻¹
same,IC50,CD32bECDHis (human) [15],0.57 nM
same,% residual binding,[16],113%
same,% residual binding,[17],185%
same,EC50,[18],1.49 nM
same,% residual binding,[19],181%
same,% residual binding,[20],168%
same,"EC50 (nM) in ADCC, lysis of 51Cr-labelled Daudi cells by PBMC",[21],0.25 nM
same,EC50,[22],0.24 nM
same,% residual binding,[23],163%
